Settings: Homo sapiens, pH 2.8, Thermal, DSC, glycine-HCl 50 mM, reversible: yes, whole UniProt chain shown

B1: Lysozyme C wild type, P61626 (protein)
chain: MKALIVLGLVLLSVTVQGKVFERCELARTLKRLGMDGYRGISLANWMCLAKWESGYNTRATNYNAGDRSTDYGIFQINSRYWCNDGKTPGAVNACHLSCSALLQDNIADAVACAKRVVRDPQGIRAWVAWRNRCQNRDVRQYVQGCGV
With B1 the “heat capacity change of unfolding” value (68.8 °C) was 1.58 kcal/mol/K, the “unfolding enthalpy (calorimetric)” value (68.8 °C) was 502 kJ/mol and the Tm was 68.8 °C. For the same protein, the “heat capacity change of unfolding” value was 1.58 kcal/mol/K.
